# The nanobody polyreactivity screen of Harvey et al. (2022)
# Assay: yeast display, Sf9 membrane polyspecificity reagent, FACS + sequencing; frameworks hold sequencing errors
# How it was run: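 A synthetic nanobody library was expressed on Saccharomyces cerevisiae BJ5465 by galactose induction for 36–48 hours. The library was stained for 1 hour at 4 °C with 10% biotinylated, detergent-solubilized Sf9 membrane reagent and enriched with streptavidin microbeads before FACS. Low and high (top ~1%) gates were set on anti-HA fluorescence for expression and streptavidin fluorescence for reagent binding, and each polyreactivity label reflects the gate of origin.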
row,Sequence,polyreactivity (PSR sort gate)
1,QVQLVESGGGLVQAGGILRLSSAASGFTFYLYTMGWYTPAPGKERELVAAISRSGDRTYYADSVKGRFTISRDNAKNTVYLQMNSLKPEDTAVYYCNAYTSYPNTMDYWGQGTQVTVSS,high polyreactivity
2,QVQLVESAGGLVQAGGSLRLSCAASGSTFGENAMGWYRQAPGKERELVAAISDSGGDTYYADSVKGRFTISRDNAKYTVYLQMNSLKPEDTAVYYCAADRYGYWYAYYSWGQGTLVTVSS,low polyreactivity
3,QVQLVESGGGLVQAGGSLRLSCAASGNAMGWYRQAPGKERELVASINRSGGRTYYADSVKGRFTISRDNAKNTVYLQMISLKPEDTAVYYCGARPHYDSDYWGQGTQVTVSS,low polyreactivity
4,QVQLVETGGGLVQAGGSLRLSCDASVSTFRYYTMGWYRQAPGKERELVASIRRGGSTNYADSVKGRFTISRDNAKNTVYLQMNSLKPEDTAVYYCNAKKGVYNGDAAKYDYWGPGTQVTVSS,high polyreactivity
5,QVQLVESGGGLVQAGGSLRLSCAASGFTFPYYAMGWYRQAPGKERELVAAISKSGGSTYYADSVKGRFTISRDYAKNTVYLQMNSLKPEDTAVYYCAADWYWWSYSDRHDYWGQGIQVTVSS,high polyreactivity
6,QVQLVESGGGLVQAGGSLRLSCAASGRTFVYYAMGWYRQAPGKERELVATITRSGGSTYYADSVKGRFTISRDNAKNTVYLQMNSLKPEDTAVYYCAVLYWRPGYDYWGQGTQVTVSS,high polyreactivity
7,QVQLVESGGGLVQAGGSLRLSCAASGRTFTTNAMGSYRQAPGKERELVAAITIGDDTYYADSVKGRFTISRDNAKNTVYLQMNSLKPEDTAVYYCAADYKRVPFVTQYVSKDGYWGQGTQVTVSS,low polyreactivity
8,QVQLVESGGGLVQAGGSLRLSCAASGRTFPSYAMGWYRQAAGKERELVAAITVSGGNTYYADSVKGRFTISRDNAKNTVYLQMNSLKPEDTAVYYCNTASYVSWYVHYYYWGQGTQVTVSS,low polyreactivity
9,QVQLVESGGGLVQAGGSLRLSCAASGRTFWVYAMGWYRQAPGKERELVAAISWRAGSTYYADSVKGRFTISRDNAKNTVYLLMNSLKPEVTAVYYCAAETYTTLDYWGQGTQVTVSS,high polyreactivity
10,QVQLVESGGGLVQAGGSLRLSCAASGRNFEQYAMGWYRQAPGKERELVAAISGSGGSTFYADSVKGRFTISRDNAKNTVYVQMNRLKPEDTAVYYCNAPGDGYLYDHTYDYWGQGTQVTVSS,low polyreactivity
11,QVQLVESGGGLVQAGGSLRLSCAASGRIFTYDAMGWYRPAPGKERELLATITSGGSTNYADSVKGRFTISRDNAMNTVYLQMNSLKPEDTAVDYCATRKYRVPRSYYWGQGTQVTVSS,high polyreactivity
12,QVQHVESGGGLVQAGGSLRLSCAASGFIFYKYAMGWYRQAPGKERELVAAISKRGGSTYYADSVKGRFTISRDNAKNTVYLQMNSLKPEDTAVYYCATDGGNSATVRYVASDYWGQGTQVTVSS,high polyreactivity
13,QVQLVETGGGLVQAGGSLGLSFAASGFIFSYYLMGWYRQAPGKERELVAAITTSGDSTYYADSVKGRFTISSDNAKNTVYLQINRLKPEDSAVYYCAADNYYETIWHYGYWGQGTQVTVSS,high polyreactivity
14,QVQLVESGGGLVQAGGSLRLSCAPSGSIFVTYAMGWYRQAPGKERELVAAISTSGGSTYADSVKGRFTISRVNAKNTVYLQMNSLKPEDTAVYYCNADDPGYAVPWYWFKYDYWGQGTQVTVSS,low polyreactivity
15,QVHLVESGGGLVQAGGSLRLSCAASGRIFFPNAMGWYRQAPGKERELVAGISIGGSTKYADSVKGRFTISRDNAKNTVYLQMNSLKPEDTAVYYCAAGRGRHTYNYWGQGTQVTVSS,low polyreactivity
16,QVQLVESGGGLVQAGGSLRLSCAASGSTFVGYAMGWYRQAPGKERELVADIDSIGGSTYYADSVKGRFTISRDNAKNTVYVQMNSLKPEDTAVYYCAARRFDTALVLYDYWGQGTQVTVSS,low polyreactivity
